According to paper PMC3205837:

Experiments:
Assay in all cases: EMSA
GST-N-γtubulin1-333 = GST-N-γtubulin1-333 (human, UniProt P23258 1-333)
GST-γ-tubulin = GST-γ-tubulin (human, UniProt P23258 1-451)
GST-γ-tubulin;His-E2F1 = GST-γ-tubulin;His-E2F1 (human;human, UniProt P23258;Q01094 1-451;1-437, |)
Sequence of GST-γ-tubulin;His-E2F1 (P23258 whole entry, chain 1 of 2): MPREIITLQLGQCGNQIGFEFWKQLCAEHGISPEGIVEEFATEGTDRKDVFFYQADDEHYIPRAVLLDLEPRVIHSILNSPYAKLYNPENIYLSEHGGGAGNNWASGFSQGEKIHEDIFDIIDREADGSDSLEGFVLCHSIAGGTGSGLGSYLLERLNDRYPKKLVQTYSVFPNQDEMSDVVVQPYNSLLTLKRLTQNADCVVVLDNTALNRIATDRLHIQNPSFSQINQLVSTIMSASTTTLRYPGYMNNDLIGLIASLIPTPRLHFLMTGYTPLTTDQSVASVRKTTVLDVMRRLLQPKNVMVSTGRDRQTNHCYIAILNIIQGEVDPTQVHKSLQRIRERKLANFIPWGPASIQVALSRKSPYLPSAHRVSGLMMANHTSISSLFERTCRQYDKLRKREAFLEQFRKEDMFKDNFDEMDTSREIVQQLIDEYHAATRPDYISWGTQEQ
Sequence of GST-γ-tubulin;His-E2F1 (Q01094 whole entry, chain 2 of 2): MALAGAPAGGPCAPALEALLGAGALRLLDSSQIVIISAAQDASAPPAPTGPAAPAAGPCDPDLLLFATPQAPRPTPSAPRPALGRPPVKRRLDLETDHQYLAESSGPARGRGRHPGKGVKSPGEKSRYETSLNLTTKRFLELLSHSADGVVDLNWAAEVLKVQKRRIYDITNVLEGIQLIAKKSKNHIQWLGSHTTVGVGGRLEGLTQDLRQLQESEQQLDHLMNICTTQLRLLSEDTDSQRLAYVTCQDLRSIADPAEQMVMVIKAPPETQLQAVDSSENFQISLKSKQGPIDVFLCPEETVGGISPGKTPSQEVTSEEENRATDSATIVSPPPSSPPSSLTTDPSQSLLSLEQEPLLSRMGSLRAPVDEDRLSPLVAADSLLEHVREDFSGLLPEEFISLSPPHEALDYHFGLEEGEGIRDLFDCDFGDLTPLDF

Sequence of GST-γ-tubulin (P23258 whole entry): as the sequence (P23258 whole entry, chain 1 of 2) above
Sequence of GST-N-γtubulin1-333 (P23258 1-333): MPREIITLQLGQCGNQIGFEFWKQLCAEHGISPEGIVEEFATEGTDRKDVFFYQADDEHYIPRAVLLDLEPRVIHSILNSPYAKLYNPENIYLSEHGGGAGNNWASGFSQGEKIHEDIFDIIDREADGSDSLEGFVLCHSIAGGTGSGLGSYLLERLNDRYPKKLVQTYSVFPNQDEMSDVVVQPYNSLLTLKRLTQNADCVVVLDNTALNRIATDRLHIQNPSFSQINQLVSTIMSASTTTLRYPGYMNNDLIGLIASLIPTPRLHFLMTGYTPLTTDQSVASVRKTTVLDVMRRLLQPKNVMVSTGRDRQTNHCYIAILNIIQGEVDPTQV

B1: DHFR promoter E2F site, wild type (dsDNA)
DNA 1: AGCTTCTAGTGCAATTTCGCGCCAAACTTGG
DNA 2: AATTCCAAGTTTGGCGCGAAATTGCACTAGA
- binding result (GST-N-γtubulin1-333): no binding
- binding result (GST-γ-tubulin): binds
- binding result (GST-γ-tubulin;His-E2F1): binds
